Results: paper PMC7308389

Molecular target: muscarinic acetylcholine receptor type 1 (M1R) (human) (UniProt P11229)
Sequence of UniProt P11229 (P11229 whole entry): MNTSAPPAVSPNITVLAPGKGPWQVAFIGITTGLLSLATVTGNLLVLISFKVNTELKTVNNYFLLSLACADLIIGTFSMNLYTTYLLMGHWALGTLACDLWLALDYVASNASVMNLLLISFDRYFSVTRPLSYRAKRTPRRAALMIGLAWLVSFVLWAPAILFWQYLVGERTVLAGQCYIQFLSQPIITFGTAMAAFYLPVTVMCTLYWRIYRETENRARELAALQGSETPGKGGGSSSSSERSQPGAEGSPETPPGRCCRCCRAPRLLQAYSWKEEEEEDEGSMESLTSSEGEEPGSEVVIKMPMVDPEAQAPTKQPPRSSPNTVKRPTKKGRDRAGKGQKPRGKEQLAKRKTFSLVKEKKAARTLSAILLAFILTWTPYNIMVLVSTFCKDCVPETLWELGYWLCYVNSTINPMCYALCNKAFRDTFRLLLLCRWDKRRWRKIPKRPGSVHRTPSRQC

M1R-induced [3H]GDP release from Gi3 Δ5 (Fig. 3c) (% GDP release): 20
Substance: Gi3_Δ5 (Gαi3 with the last five residues truncated, with added Gβγ) (from UniProt P08754 1-349; P62873 1-340; P59768 1-71) (complex)
